System: Prototheca moriformis (UTEX 1435)
Assay: cDNA abundance by real-time RT-PCR under nitrogen depletion
Format: cell-based
Conditions: after 24 hours of culture in low nitrogen medium
Procedure: A cDNA library was generated from Prototheca moriformis (UTEX 1435) using standard techniques. The Prototheca moriformis cells were grown for 48 hours under nitrogen replete conditions. […] After about 24 hours in culture, the nitrogen supply in the media was completely depleted. The collected samples were immediately frozen using dry ice and isopropanol. Total RNA was subsequently isolated from the frozen cell pellet samples and a portion from each sample was held in reserve for RT-PCR studies. The rest of the total RNA harvested from the samples was subjected to polyA selection. Equimolar amounts of polyA selected RNA from each condition was then pooled and used to generate a cDNA library in vector pcDNA 3.0 (Invitrogen). Roughly 1200 clones were randomly picked from the resulting pooled cDNA library and subjected to sequencing on both strands. Approximately 68 different cDNAs were selected from among these 1200 sequences and used to design cDNA-specific primers for use in real-time RT-PCR studies. RNA isolated from the cell pellet samples that were held in reserve was used as substrate in the real time RT-PCR studies using the cDNA-specific primer sets generated above. This reserved RNA was converted into cDNA and used as substrate for RT-PCR for each of the 68 gene specific primer sets. […] As discussed in the specification, nitrogen depletion/limitation is a known inducer of lipogenesis in oleaginous microorganisms. Fold increase refers to the fold increase in cDNA abundance after 24 hours of culture in low nitrogen medium.

B1: Aat05-Amino acid transporter 05 promoter/5′UTR: putative nitrogen-regulated promoter/5′UTR, SEQ ID NO: 66 (nucleic acid, listed as Prototheca moriformis)
DNA: CCGAGCAGTTCATGGCCAAGTACAAGGACTAGAGACCGGAGGTCGGTAGGCTGAATGGAGCTGGCGTCGTCGTGCGCGACGTGCACGCGATGCGATACTACGACCCCACAAACGCATGCCTCCCATCTTGATGCCTTTCCGGCCATTTATACTATTTCTCATTTCGCTGTAACATCTTGAATAATAGAATTGCCCTGTGTCAAGTGGATTCCAAGAAATATTCTGTCCCAACAAAACAACCCAACCTGAAAACAACCTCAAATACCACCAGCCCTGCCCACCTGCCCAGTACACTTTTCCAATACCATCTCCCTACCTTCACGCGCAAGCGGCACCCATGCGCGACCAGGCTCGAAAGGATTTCACGACTCAGGACGAGCGAGTGGCGGCGCGACCGCCTGCCTGTTCGTCACGTGCCGTACGTCGGCGACCGCTAGAGCTTTGCCTGGCAACCCCCGGCTTCGTCAACCCGGCCAGCCAGGATCTCGACCACTCTACCGCGAAATCGCCTCAAGAAGTCGCCAAAAGTGCCGTACACCATGCTTCGCAGCGCTGTTCAAACTTGATGCCAATCTTGACAATCAGGTTGCTCGTTGGCTGCGTCCACATCGGCCGTGATTGCAGCAGGCGGGGATCGGACACGGAGGACGCGGCGTCACGCCGCGAACGCAGCCCGTAACTCTACATCAACGCGATATGTTGCGTAATCCCGCCCGGCTGCGCATTGTGACAACCCATTCGCGATGGATGGTCGGAAAATGGTGTGCCAACTGCCCTGAGGGACTCTCTCGCGAAACGGGCACGTCCCTGTATCCGAAACTGTGGCATGGCCTTGTCGACCACGCAAGCACGTGGACCCTAACACCACGAAAATAAGTAAAAAAGGTTGACATCCTCTACGAGCGAATTGTTTGCTCGACCCTTCATCGCACACTGTCATTATAATGCATCTAGCTCGGCGACAAGTTTAAAAAAGGCAGGCTGCATTATTCCATTTTGCCGTGGCGGCATGGGTGCCCATTTTATGAGGTTTGGGCTCTTGGGCAGCGACCGAGCCAGGTTGAGTCCCTCTCGCCCGTCGACAACGTTCCAAAGCCCATAAGTGGCTAATAAACAACTTGATGGTACCTGTACACTGCCAGTTCCTTCTTCCCCGGCCGAGGTTTACACGTGATGGCCATGGCTTCGCGTTTCAGGCTGACTTCCCATTCCGACTTTCCAGAGGGTCCGCGGACGCCGGGGGTTGGCTGCGTGAGGCCCACCCCTTGTTCCCCGCGTCCCGACAAACACAATTGCGTTACATAAGGGGGAAGCCGCCCCCCGTTCAGAGTGCAAACATCTTTCATTATATTTTTCAGTCGTCAGCGAAATCAAGTATGTCGCTGACAGGCATGAAGGCC
- Fold increased (cDNA abundance): 6.71

B2: Aat02-Amino acid transporter 02 promoter/5′UTR: putative nitrogen-regulated promoter/5′UTR, SEQ ID NO: 63 (nucleic acid, listed as Prototheca moriformis)
DNA: AGAGAGCGGAGGTGGGGTTGTGAGGTGGGGTTGCTGACCAGGAGCTCGCGTCGCCGAGCGCGACTCGCACACGGTCCAGTTACCCCCCCCTCCGCCCAAACGCAAGCCTCCCATCTTGATGCCTTTCCGGCCACCTATACTATTTCTTAGTTCGCTGTAACATCCAGACCGTCCTGAATAATAACAATGCCCTGTGTCAAGTGCATTCCTAAAAAAATTCTGTCCCAACCAACAATCCCACCTGAAATACCACCAGCCCTGCCCAGTACACTCTTCCAATACCATCTCCCTACCTCCACGCGCAAGCGACCCCCATGCGCGACCAGGCTCGAAAGTGATTTATGACTTGAGACGAGCGAGTGGCGGCGCGGTCGACTGCCTTTTCATCACGTGCCGTACGTCGGCGACCGCTAGGGCTTTGCACGGCAACGCACGGCTTCGCCAACCCGACCAGCCAGGACCTCGACTACTCTACCGCGAATTCGCCTCAAGAAGTCGCCAAATGTGCCATACACCATTCCTTACAGCACTGTTCAAACTTGATGCCAATTTTGACATTCGGGTTGCTCGTTGGCTGCGCCCACATCGGCCGTGAGTGCAGCAGGCGGGATCGGACACGGAGGACGCGGCGTCACGCCCCGAACGCAGCCCGTAACTCTACATCAACACGACGTGTTGCGTAATCCCGCCCGGCTGCGCATCGTGCCAACCCATTCGCGATGGATGGTCGGAAAATGGTGTGCCAACTGCCCTGAGGGAGGCTCTCGCGAAACGGGCACGTCCCTGAAACCGAAACTGTGGCCTTGTCGTCGGCCACGCAAGCACGTGGACCCTAAACACCAAGAAAATCAGTAAACAAGGTTGACATCCTCTACGGGCGAATTGTTTGCCCAACCCTTCATCGCACACTGCCATTATAATGCATCTAGCTCGGCGACAAGTTTAGAAAAGGCAGGCTGCATTGTTCCATTTCGCCGTGGCGGCGTGGGTGCCCATTTTACGAGGTTTGGGCTCCCGGGCAGCGACCGAGCCAGGTCGAGTCCCTCTCGCCCGTCGACAATGTTGCGAACCCCACAAGCGGCTAACAACAACTTGATGGTACCTGTACACTGCCAATTCCTTCTTCCCCGGCCGAGGTTTACACGTGATGGCCATGGCTTCGCATTCAGGCCGACTTCCCATTCCGACTTTCCAGAGGGTCCGCGGACGCTGGGGGTTGGCTGCCTGAGGCCCACCCTTTGTTCCCCGCGTCCCGACAAACACAATTGCGTTACATAAGGGGGAGCCGCCCCCGTTCAGAGTGCAGAAATCTTTCACTATATTTTCCAGTCGTCAGCGAAATCAAGT
- Fold increased (cDNA abundance): 6.5

B3: Aat03-Amino acid transporter 03 promoter/5′UTR: putative nitrogen-regulated promoter/5′UTR, SEQ ID NO: 64 (nucleic acid, listed as Prototheca moriformis)
DNA: GATGGTGGGGTGTCTGCCTTGGGCTGGGTGATGGAGGCTGGTGGTGCGCGGGTTTCCTGATGCATTCTATCTACGCAGTGTCATGGTGTCCATTCCACACACCAGTACACCCTTACACTAAGGATCCATCCCTCCTTCCCTCTTCAGGACTACATGGACCCCACGAGCTACCGACCGGGCTTTCTCAAAAACGTCAAGGTCATGTTTGACATGCGGGACGTGGTGGACGACGTGCAAGGTGCGTCCGGAGTGCGCGCAAATGAGCAAGTCGGGCAATGTGTCGGGGTGGGCACCGGGGCTGGAGATCCGCGATCCCCGAGAAAACGCCGTACCACCCCCCGCGCTATTCCCTCGATTGCGCGCAGATGTGGTGACCGACACGGGGGACAACCTGGCGGACATGGGGCGCCGGACCTGGAAGCACGCCAAGTCGCACACGGGGAGGCTCGTGCAGTCCCCCCCATCGTACCTCAAGGGTCTCTTTGGTCGCGATCCAAAGTACGCTGGTGGCATGGCATGCCCGAAATGAACATCATGTGTGATCTCCGATTGCCAATGGCCACCTCCACGGACCACCTTGCAGGCGGAAGCGCAATCCAGGGCCCGAGCCTGACGAGGACGGAGACTCCTCGTCCAGCGCGGGGTCCCCGACCCGACGCAGCAGCCGACCCCTGCTAACCCGGCAACGATCGGACCAGCAACCTTGCTGTAGTTCCGATCCGTGATGACGGGCATTGCCGCCGCTCGATCCGCTTTGATGACTGTCTATTATTTGCGCGGAGCCCCCTCGGAACCCTACCCCGCTCTTGCAAGCCCCTTGCATCGGAGATCCTCGTGCGCCCGCCATGACCCCACTGGATTGCCCAACATCCTTCTTTATCGTGTAAAATGTGATTCCTCGGCTGCAATCGACTGGCCTTCGCTTCTGGCCCCAAGAGGGCTCGAACGTGCGGCAGCGAGGGCGCTGACACACCCAAGCCCTAGGGCTTTCAACGTCGGCTGCCAGGCCGGATAGGGGGATCGCCTCCTTTCCACCACCCACCTACGAGGGATTCGAGTCGGCTTCCAGCTCAGCTATTCGGCCGCGCCCCCGGCCCTGCAGACGTCCTCCAGTTTCCGAACAGGTCGCTCTCAGAACACCTGCCGCGGCTGCGATACGGCAGGCTCTCAAAGCGTCGAC
- Fold increased (cDNA abundance): 7.87

B4: NRAMP metal transporter promoter/5′UTR: putative nitrogen-regulated promoter/5′UTR, SEQ ID NO: 56 (nucleic acid, listed as Prototheca moriformis)
DNA: ACTAATTGCAATCGTGCAGTAATCATCGATATGGTCACAAGTAGATCCCCTACTGACACCCTCTCGTACATGTAGGCAATGTCATCGGCGCCGTCCTGCTGACCGATGCCGACGTAGCAGAGCAGACCCGGGCCGATCTGGGATACGAGCCGGCCCTCCACCTGCGCTCGAGGTGGAATCAAGTAAATAACCAATACACTTTTCGACACCACACAGAGTTGCACGGACGGTGGCGTACCTCTACGCTCGCGCTCTTCACGCGCTGGACGACCGCACGCATGAGCCCGGGTGGCTTGGTCTGGGCTGCAAAAATGCACAACAAACAAGTATCAGACGCTCATGGATGCACACGCGCTCCCAAGCACGCTCAGACTAAATATTACAGTAGCTCGTATCTGATAAGATATCGAGACATACCGCTCAACTCACCCGCAAACTGCGCCCCGCCAGGTGATGCGCACAGGGCCCCACCATGCGATCCATCGCATCGCTCCTCGAGGGCGCTATCACGTGGCCGGAGAGCGTTCACAGCGTACGCCACTGTATCTGGGCGGTATGCGGTCCGTCAACATGGAGACAGATACCCGCACCACCACCTTGCAAGCTCTTCCATATTGGAAGTAGAAAATTGTAATTGTATCATCGCACGAGGGGCCAACTTGCCGTCGGCGAGCTGGGCGACGAACACCACCTGGACGTTGTCGAGACTCGCTCGTGCCGTGCGCCGGGCCGCTGGGTATCCAGACCGTCGCC
- Fold increased (cDNA abundance): 9.65

From US10100341B2, “Tailored oils produced from recombinant oleaginous microorganisms” (Corbion Biotech, Inc., priority 2011, dated 2018)
